Test results as given in publication PMC1874592.

Substrate: Nc1ncnc2c1ncn2[C@@H]1O[C@H](COP(=O)(O)OP(=O)(O)OP(=O)(O)O)[C@@H](O)[C@H]1O
Experiment: purified protein
Details: labelled compound, ΦX174 ssDNA, Mg2+, 65°C

B1: SsoRadA (Sulfolobus solfataricus RadA) (Saccharolobus solfataricus P2) (protein)
chain: MSNEVEQKKNIKTINDLPGISQTVINKLIEAGYSSLETLAVASPQDLSVAAGIPLSTAQKIIKEARDALDIRFKTALEVKKERMNVKKISTGSQALDGLLAGGIETRTMTEFFGEFGSGKTQLCHQLSVNVQLPPEKGGLSGKAVYIDTEGTFRWERIENMAKALGLDIDNVMNNIYYIRAINTDHQIAIVDDLQELVSKDPSIKLIVVDSVTSHFRAEYPGRENLAVRQQKLNKHLHQLTRLAEVYDIAVIITNQVMARPDMFYGDPTVAVGGHTLYHVPGIRIQLKKSRGNRRIARVVDAPHLPEGEVVFALTEEGIRDAEE
Km (3.0 μM protein): 300 ± 10 µM | kcat (3.0 μM protein): 0.00085 ± 1.7e-05 s⁻¹

B2: SsoRadA (Sulfolobus solfataricus RadA) (Saccharolobus solfataricus P2; F73D) (protein)
chain: MSNEVEQKKNIKTINDLPGISQTVINKLIEAGYSSLETLAVASPQDLSVAAGIPLSTAQKIIKEARDALDIRDKTALEVKKERMNVKKISTGSQALDGLLAGGIETRTMTEFFGEFGSGKTQLCHQLSVNVQLPPEKGGLSGKAVYIDTEGTFRWERIENMAKALGLDIDNVMNNIYYIRAINTDHQIAIVDDLQELVSKDPSIKLIVVDSVTSHFRAEYPGRENLAVRQQKLNKHLHQLTRLAEVYDIAVIITNQVMARPDMFYGDPTVAVGGHTLYHVPGIRIQLKKSRGNRRIARVVDAPHLPEGEVVFALTEEGIRDAEE
Km (5.0 μM protein): 490 ± 30 µM | kcat (5.0 μM protein): 0.00085 ± 1.7e-05 s⁻¹

B3: SsoRadA (Sulfolobus solfataricus RadA) (Saccharolobus solfataricus P2; R83E) (protein)
chain: MSNEVEQKKNIKTINDLPGISQTVINKLIEAGYSSLETLAVASPQDLSVAAGIPLSTAQKIIKEARDALDIRFKTALEVKKEEMNVKKISTGSQALDGLLAGGIETRTMTEFFGEFGSGKTQLCHQLSVNVQLPPEKGGLSGKAVYIDTEGTFRWERIENMAKALGLDIDNVMNNIYYIRAINTDHQIAIVDDLQELVSKDPSIKLIVVDSVTSHFRAEYPGRENLAVRQQKLNKHLHQLTRLAEVYDIAVIITNQVMARPDMFYGDPTVAVGGHTLYHVPGIRIQLKKSRGNRRIARVVDAPHLPEGEVVFALTEEGIRDAEE
Km (5.0 μM protein): 460 ± 60 µM | kcat (5.0 μM protein): 0.000867 ± 6.7e-05 s⁻¹

B4: SsoRadA (Sulfolobus solfataricus RadA) (Saccharolobus solfataricus P2; R83A) (protein)
chain: MSNEVEQKKNIKTINDLPGISQTVINKLIEAGYSSLETLAVASPQDLSVAAGIPLSTAQKIIKEARDALDIRFKTALEVKKEAMNVKKISTGSQALDGLLAGGIETRTMTEFFGEFGSGKTQLCHQLSVNVQLPPEKGGLSGKAVYIDTEGTFRWERIENMAKALGLDIDNVMNNIYYIRAINTDHQIAIVDDLQELVSKDPSIKLIVVDSVTSHFRAEYPGRENLAVRQQKLNKHLHQLTRLAEVYDIAVIITNQVMARPDMFYGDPTVAVGGHTLYHVPGIRIQLKKSRGNRRIARVVDAPHLPEGEVVFALTEEGIRDAEE
Km (2.5 μM protein): 210 ± 10 µM | kcat (2.5 μM protein): 0.00152 ± 1.7e-05 s⁻¹
